{
  "source": "patent US20010018511A1",
  "about": "(CANCER RESEARCH CAMPAIGN TECHNOLOGY, published 2001)",
  "binders": {"B1": {"name": "phage clone 12/1 (peptide)", "chain": "MPRFMDYWEGLN", "notes": "Tested as whole phage showing the peptide; not shown: minor coat protein III of the filamentous phage of the display library; the peptide stands at its N-terminus; phage stra"}, "B2": {"name": "phage clone 12/2 (peptide)", "chain": "VQNFIDYWTQQF", "notes": "as for B1"}, "B3": {"name": "phage clone 12/5 (peptide)", "chain": "TGPAFTHYWATF", "notes": "as for B1"}, "B4": {"name": "phage clone 15/1 (peptide)", "chain": "IDRAPTFRDHWFALV", "notes": "as for B1"}, "B5": {"name": "phage clone 15/5 (peptide)", "chain": "PRPALVFADYWETLY", "notes": "as for B1"}, "B6": {"name": "phage clone BB3 (peptide)", "chain": "PAFSRFWSDLSAGAH", "notes": "Tested as whole phage showing the peptide; also called hdm2 phage; hdm2-phage; not shown: minor coat protein III of the filamentous phage of the display library; the peptide stands at its N-terminus; phage stra"}},
  "data": [
    {"molecular_target": "T1, GST-hdm2 (1-188) (S. japonicum; human, UniProt Q00987 1-188)", "T1 construct": "range 1-188; Fusion made in E. coli BL21 from pGEX-2T; GST, linker, hdm2 1-188 in this order; also called GST-hdm2 protein", "T1 sequence (Q00987 1-188)": "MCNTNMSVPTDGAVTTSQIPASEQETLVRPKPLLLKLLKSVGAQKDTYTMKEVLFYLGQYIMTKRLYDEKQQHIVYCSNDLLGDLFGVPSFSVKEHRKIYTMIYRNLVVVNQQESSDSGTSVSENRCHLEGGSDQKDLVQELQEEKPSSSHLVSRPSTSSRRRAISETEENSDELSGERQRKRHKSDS", "test": "single clone phage ELISA on coated antigen", "description": "Amplified and purified phages from this round of biopanning are tested in an ELISA on the proteins used for their selection. For single clone screening E.coli K91 cells are infected with appropriate phage dilutions and spread on LB agar with 20 μg/ml tetracycline. Single colonies are transfered to wells of a 96-well tissue culture plate containing 200 μl 2×YT medium with 20 μg/ml tetracycline per well. Phage supernatant is collected for ELISA screening after a 24 hour incubation at 37° C. with shaking. ELISA positive clones are grown up as 2 ml bacterial cultures in 2×YT medium with 20 μg/ml tetracycline for 24 hours. Phage are PEG precipitated and redissolved in 200 μl TBS buffer. Phage DNA is extracted with phenol/chloroform and ethanol precipitated. The DNA pellet is redissolved in 10 μl water and used as template for sequencing (Sequenase).\n100 μl phage suspension (supernatant or PEG concentrated phage) is diluted in PBST-M and added for three hours at 4° C. Bound phages are reacted with 100 μl HRP-labelled sheep anti-M13 antibody (Pharmacia) for one hour at room temperature followed by substrate development with 100 μl TMB/H202 (0.1 mg/ml TMB, 0.3% H₂O₂ in 0.1 M Na-acetate, pH 6.0) for 15 min. The reaction is stopped by adding 100 μl 1 M sulphuric acid to the substrate and the absorbance is measured at 450 nm. All washings between the incubation steps are done with tap water.", "values": [
      {"binder": "B1", "binding result": "binds"},
      {"binder": "B2", "binding result": "binds"},
      {"binder": "B3", "binding result": "binds"},
      {"binder": "B4", "binding result": "binds"},
      {"binder": "B5", "binding result": "binds"},
      {"binder": "B6", "binding result": "binds"}
    ]}
  ]
}
